Measured values taken from the supplement of paper PMC10724198.
± gives the standard deviation of the averaged measurements.

What was measured:
[1] = tested on: Saccharomyces cerevisiae; assay: protein stability index of tFT-peptide fusion (C-terminal peptide) (PSI (0-1 scale)); higher = more stable (slower turnover)
Method: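 MPS profiling in S. cerevisiae of the tFT-X12 degron library: putative degron peptides plus stable controls, 12 aa, fused to the C-terminus of a sfGFP-mCherry timer. Cells are FACS-sorted into 8 mCherry/sfGFP bins and deep-sequenced. PSI runs from 0 (unstable) to 1 (stable). Backgrounds are wild type, das1Δ and doa10Δ at 30 °C, and wild type, das1Δ, cdc34-1 and cdc53-1 at 37 °C; 2-3 technical replicates each.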

[2] = tested on: Saccharomyces cerevisiae; assay: as above; settings: genetic background: wild type; temperature: 30 C
[3] = genetic background: cdc34-1, temperature: 37 C
[4] = genetic background: cdc53-1, temperature: 37 C
[5] = genetic background: das1 deletion, temperature: 30 C
[6] = genetic background: das1 deletion, temperature: 37 C
[7] = genetic background: doa10 deletion, temperature: 30 C
[8] = genetic background: wild type, temperature: 30 C
[9] = genetic background: wild type, temperature: 37 C
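Further: PSI is a weighted mean of sequencing reads over stability bins, variants kept only with over 10 reads, mCherry proximal and sfGFP distal, peptide attached via GGGS linker.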

| Sequence | protein stability index [1, 3] | protein stability index [1, 4] | protein stability index [1, 5] | protein stability index [1, 6] | protein stability index [1, 7] | protein stability index [1, 8] | protein stability index [1, 9] | protein stability index [2] |
| --- | --- | --- | --- | --- | --- | --- | --- | --- |
| LPPYPPPVPILI | 0.449 ± 0.0069 | 0.455 ± 0.021 | 0.362 ± 0.031 | 0.519 ± 0.0006 | 0.322 ± 0.0038 | 0.39 ± 0.026 | 0.489 ± 0.0053 | 0.493 ± 0.017 |
| LPSLRPPPCIRA | 0.4441 ± 0.002 | 0.473 ± 0.013 | 0.36 ± 0.038 | 0.54 ± 0.02 | 0.332 ± 0.041 | 0.345 ± 0.015 | 0.513 ± 0.014 | 0.48 ± 0.018 |
| LQYSKALAVICG | 0.218 ± 0.034 | 0.264 ± 0.027 | 0.235 ± 0.041 | 0.367 ± 0.01 | 0.19 ± 0.017 | 0.221 ± 0.033 | 0.317 ± 0.023 | 0.374 ± 0.05 |
| LRALGPRIYRIS | 0.661 ± 0.076 | 0.747 ± 0.025 | 0.645 ± 0.015 | 0.747 ± 0.016 | 0.194 ± 0.0089 | 0.199 ± 0.012 | 0.417 ± 0.016 | 0.317 ± 0.035 |
| LRLFIFLLFSVF | 0.246 ± 0.025 | 0.282 ± 0.023 | 0.268 ± 0.034 | 0.39 ± 0.012 | 0.19 ± 0.0081 | 0.175 ± 0.015 | 0.249 ± 0.013 | 0.198 ± 0.013 |
| LSFFFWFIFSLC | 0.475 ± 0.013 | 0.492 ± 0.053 | 0.429 ± 0.028 | 0.5328 ± 0.0043 | 0.344 ± 0.035 | 0.325 ± 0.0039 | 0.443 ± 0.027 | 0.376 ± 0.019 |
| LSLFCFFLLVLF | 0.203 ± 0.025 | 0.224 ± 0.021 | 0.272 ± 0.047 | 0.332 ± 0.011 | 0.305 ± 0.0094 | 0.206 ± 0.03 | 0.288 ± 0.0084 | 0.2279 ± 0.0013 |
| LSPLPSPLILVV | 0.116 ± 0.08 | 0.16 ± 0.021 | 0.201 ± 0.0086 | 0.228 ± 0.0065 | 0.14761 ± 5.3e-05 | 0.191 ± 0.034 | 0.182 ± 0.022 | 0.284 ± 0.014 |
| LSRELRFVGFYH | 0.637 ± 0.07 | 0.751 ± 0.019 | 0.656 ± 0.017 | 0.717 ± 0.025 | 0.222 ± 0.004 | 0.229 ± 0.054 | 0.517 ± 0.043 | 0.318 ± 0.066 |
| LSRLWVVGWVVA | 0.453 ± 0.019 | 0.472 ± 0.028 | 0.345 ± 0.032 | 0.529 ± 0.0071 | 0.191 ± 0.0034 | 0.234 ± 0.025 | 0.399 ± 0.013 | 0.295 ± 0.036 |
| LSSIIRFLIFCL | 0.496 ± 0.024 | 0.532 ± 0.015 | 0.495 ± 0.024 | 0.5964 ± 0.0026 | 0.398 ± 0.031 | 0.366 ± 0.0049 | 0.469 ± 0.0062 | 0.404 ± 0.013 |
| LTIYPLTYCFVS | 0.629 ± 0.051 | 0.704 ± 0.046 | 0.562 ± 0.025 | 0.657 ± 0.058 | 0.45336 ± 0.00045 | 0.44 ± 0.023 | 0.568 ± 0.025 | 0.502 ± 0.035 |
| LVDSRIVWLFVS | 0.325 ± 0.095 | 0.584 ± 0.034 | 0.439 ± 0.026 | 0.632 ± 0.024 | 0.0761 ± 0.016 | 0.0713 ± 0.017 | 0.0698 ± 0.021 | 0.0955 ± 0.039 |
| LVFFAYLIRGAL | 0.344 ± 0.0086 | 0.462 ± 0.011 | 0.364 ± 0.031 | 0.518 ± 0.015 | 0.0526 ± 0.0068 | 0.0682 ± 0.0051 | 0.0558 ± 0.0015 | 0.108 ± 0.036 |
| LVGLESCGERAG | 0.655 ± 0.00071 | 0.7436 ± 0.0018 | 0.644 ± 0.025 | 0.7308 ± 0.0011 | 0.643 ± 0.027 | 0.654 ± 0.0009 | 0.72 ± 0.024 | 0.69 ± 0.035 |
| LVHLVLYVAVFC | 0.317 ± 0.043 | 0.4112 ± 0.0015 | 0.292 ± 0.048 | 0.409 ± 0.0046 | 0.2877 ± 0.0014 | 0.309 ± 0.013 | 0.398 ± 0.0049 | 0.283 ± 0.074 |
| LVLLRLSSLTIF | 0.627 ± 0.01 | 0.699 ± 0.0095 | 0.561 ± 0.018 | 0.707 ± 0.012 | 0.269 ± 0.011 | 0.314 ± 0.011 | 0.549 ± 0.034 | 0.404 ± 0.0068 |
| LVVFLRFFLRVL | 0.105 ± 0.0097 | 0.106 ± 0.002 | 0.166 ± 0.028 | 0.265 ± 0.039 | 0.175 ± 0.003 | 0.114 ± 0.033 | 0.158 ± 0.016 | 0.199 ± 0.0035 |
| LVVGCFLTFCFG | 0.241 ± 0.013 | 0.366 ± 0.012 | 0.26 ± 0.028 | 0.441 ± 0.0089 | 0.212 ± 0.0024 | 0.236 ± 0.038 | 0.402 ± 0.0085 | 0.315 ± 0.028 |
| LWFGAWWLGAVG | 0.318 ± 0.031 | 0.361 ± 0.0043 | 0.411 ± 0.0063 | 0.336 ± 0.0087 | 0.4166 ± 0.0011 | 0.421 ± 0.0065 | 0.32 ± 0.013 | 0.457 ± 0.0053 |

| Sequence | protein stability index [1, 3] | protein stability index [1, 4] | protein stability index [1, 5] | protein stability index [1, 6] | protein stability index [1, 7] | protein stability index [1, 8] | protein stability index [1, 9] | protein stability index [2] |
| --- | --- | --- | --- | --- | --- | --- | --- | --- |
| LWGVGRQRNIAS | 0.684 ± 0.033 | 0.758 ± 0.015 | 0.655 ± 0.038 | 0.769 ± 0.021 | 0.291 ± 0.036 | 0.304 ± 0.018 | 0.582 ± 0.021 | 0.41 ± 0.013 |
| LWRRSLLLLRCC | 0.0526 ± 0.0063 | 0.0759 ± 0.04 | 0.173 ± 0.029 | 0.244 ± 0.015 | 0.0637 ± 0.013 | 0.0611 ± 0.0038 | 0.0618 ± 0.0063 | 0.0946 ± 0.013 |
| LWYVQILNIVLN | 0.31 ± 0.018 | 0.388 ± 0.019 | 0.293 ± 0.048 | 0.4552 ± 0.0029 | 0.233 ± 0.024 | 0.249 ± 0.029 | 0.409 ± 0.013 | 0.328 ± 0.033 |
| LYLEAYFCIFHF | 0.356 ± 0.052 | 0.449 ± 0.0069 | 0.358 ± 0.025 | 0.422 ± 0.013 | 0.334 ± 0.017 | 0.327 ± 0.004 | 0.401 ± 0.015 | 0.36 ± 0.024 |
| MALAVRVVVCGA | 0.0333 ± 0.0083 | 0.0649 ± 0.022 | 0.125 ± 0.025 | 0.131 ± 0.0024 | 0.0868 ± 0.014 | 0.107 ± 0.02 | 0.107 ± 0.021 | 0.184 ± 0.043 |
| MAMMQTILIIIH | 0.0295 ± 0.01 | 0.158 ± 0.14 | 0.117 ± 0.044 | 0.186 ± 0.014 | 0.0894 ± 0.029 | 0.119 ± 0.026 | 0.173 ± 0.0081 | 0.171 ± 0.0028 |
| MDLVSEYKIKVN | 0.62 ± 0.026 | 0.712 ± 0.053 | 0.56 ± 0.034 | 0.704 ± 0.02 | 0.176 ± 0.006 | 0.226 ± 0.038 | 0.473 ± 0.0088 | 0.31 ± 0.004 |
| MFRSEVSWKLCC | 0.619 ± 0.071 | 0.727 ± 0.015 | 0.624 ± 0.019 | 0.753 ± 0.011 | 0.1344 ± 0.00047 | 0.174 ± 0.025 | 0.409 ± 0.025 | 0.285 ± 0.054 |
| MSCILFCCLVPF | 0.545 ± 0.039 | 0.57 ± 0.034 | 0.423 ± 0.023 | 0.568 ± 0.014 | 0.381 ± 0.012 | 0.402 ± 0.029 | 0.549 ± 0.017 | 0.4748 ± 0.0035 |
| NASWAFLCYFCV | 0.646 ± 0.03 | 0.69 ± 0.013 | 0.538 ± 0.018 | 0.68493 ± 0.0006 | 0.347 ± 0.018 | 0.374 ± 0.022 | 0.557 ± 0.04 | 0.481 ± 0.028 |
| NMRYRATIEACA | 0.258 ± 0.043 | 0.319 ± 0.0071 | 0.222 ± 0.029 | 0.397 ± 0.005 | 0.174 ± 0.021 | 0.226 ± 0.029 | 0.38 ± 0.023 | 0.356 ± 0.0097 |
| NTYKICVVSVTS | 0.449 ± 0.014 | 0.552 ± 0.021 | 0.355 ± 0.047 | 0.587 ± 0.0069 | 0.267 ± 0.019 | 0.299 ± 0.035 | 0.578 ± 0.018 | 0.413 ± 0.018 |
| NYVFRIIIVLDA | 0.269 ± 0.01 | 0.408 ± 0.11 | 0.267 ± 0.035 | 0.429 ± 0.042 | 0.227 ± 0.059 | 0.245 ± 0.011 | 0.349 ± 0.031 | 0.444 ± 0.0058 |
| PALYLSLWFLFP | 0.534 ± 0.056 | 0.606 ± 0.023 | 0.445 ± 0.043 | 0.603 ± 0.023 | 0.452 ± 0.013 | 0.456 ± 0.037 | 0.5761 ± 0.0011 | 0.512 ± 0.045 |
| PAVRRLTGLMLM | 0.6812 ± 0.0047 | 0.7493 ± 0.0057 | 0.612 ± 0.014 | 0.737 ± 0.024 | 0.276 ± 0.011 | 0.321 ± 0.0051 | 0.566 ± 0.022 | 0.413 ± 0.011 |
| PCNVLWYSLFLF | 0.487 ± 0.015 | 0.597 ± 0.025 | 0.452 ± 0.027 | 0.597 ± 0.018 | 0.175 ± 0.018 | 0.19 ± 0.017 | 0.34 ± 0.0062 | 0.271 ± 0.0091 |
| PFAGRLWVTSSF | 0.707 ± 0.052 | 0.7726 ± 0.005 | 0.671 ± 0.011 | 0.7908 ± 0.0063 | 0.685 ± 0.021 | 0.674 ± 0.022 | 0.7558 ± 0.0072 | 0.752 ± 0.035 |
| PFYQSGGLVVVV | 0.58 ± 0.024 | 0.63 ± 0.017 | 0.469 ± 0.034 | 0.62927 ± 0.00041 | 0.437 ± 0.021 | 0.464 ± 0.023 | 0.583 ± 0.029 | 0.21 ± 0.039 |
| PGHICVPVLGTA | 0.453 ± 0.021 | 0.467 ± 0.0061 | 0.348 ± 0.037 | 0.513 ± 0.0077 | 0.3072 ± 0.003 | 0.357 ± 0.027 | 0.517 ± 0.036 | 0.447 ± 0.027 |
